Earlier results in publication PMC7289715.

Target: Spike protein (SARS-CoV-2) (UniProt P0DTC2)

## CD147 (from UniProt P35613)
  Kd: 185 nM
